System: Frog Prince transposase (consensus, FP) (Rana pipiens)
Experiment: cell_activity
Conditions: G418-resistant colony increase in HeLa cells

Sequence of Frog Prince transposase (consensus, FP) (Rana pipiens) (chain, as listed by the source): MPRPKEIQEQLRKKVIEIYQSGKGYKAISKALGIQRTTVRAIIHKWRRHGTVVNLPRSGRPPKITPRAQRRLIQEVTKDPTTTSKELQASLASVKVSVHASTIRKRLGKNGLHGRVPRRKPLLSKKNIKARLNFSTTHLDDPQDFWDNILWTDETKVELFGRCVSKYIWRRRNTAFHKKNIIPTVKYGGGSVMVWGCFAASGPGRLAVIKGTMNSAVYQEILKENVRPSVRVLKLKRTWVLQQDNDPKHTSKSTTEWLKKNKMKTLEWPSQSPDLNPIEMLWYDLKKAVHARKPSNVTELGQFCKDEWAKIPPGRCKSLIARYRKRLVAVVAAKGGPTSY

Row | Substance | activity (cross-mobilization) | activity (transposition)
1 | Txr transposon (pTxr-neo) | 5 fold | –
2 | CAGTGGTGTGAAAAAGTGTTTGCCCCCTTCCTCATTTCCTGTTCCTTTGCATGTTTGTCACACTTAAGTGTTTCGGAACATCAAACCAATTTAAACAATAGTCAAGGACAACACAAGTAAACACAAAATGCAATTTGTAAATGAAGGTGTTTATTATTAAAGGTGAAAAAAAATCCAAACCATCATGGCCCTGTGTGAAAAAGTGATTGCCCCCCTTGTTAAAACATACTATAACTGTGGTTGTCCACAC (double strand) [Frog Prince transposon inverted repeat (pFrogPrince-neo)] | – | 17 fold

Reference: patent publication US20050241007
